Source: patent publication US7387779B2, “Anti-angiogenic proteins and fragments and methods of use thereof” (Beth Israel Deaconess Medical Center, priority 1998, dated 2008)

Test system: C-PAE cells
Assay: Endothelial cell proliferation, methylene blue staining
Assay type: cell-based, bovine
Settings: for inhibition of endothelial cell proliferation by synthetic peptides: 10 μg/ml; for EC50: equimolar comparison, read-out: ED50, anti-proliferative effect; for inhibition of proliferation of C-PAE cells: 15 μg/ml; for Relative Cell No. (%) C-PAE: 15 μg/ml recombinant protein; for inhibition of endothelial cell proliferation, comparison with anti-αvβ3 antibody: increasing equimolar amounts; for reduction of the number of cells: 10% FBS, 5 ng/ml bFGF, 3 ng/ml VEGF, 48 hours, 5 μg/ml and higher
Procedure: A methylene blue staining test was also done. 3,100 cells were added to each well and treated as above, and cells were then counted using the method of Oliver et al. (Oliver, M. H. et al., 1989, J. Cell. Science 92:513-18). All wells were washed one time with […] of 1×PBS and the cells were fixed by adding […] of 10% formalin in neutral-buffered saline (Sigma Chemical Co., St. Louis, Mo., USA) for 30 minutes at room temperature. After formalin removal cells were stained with a solution of 1% methylene blue (Sigma Chemical Co.) in 0.01 M borate buffer (pH 8.5) for 30 minutes at room temperature. After removal of staining solution, the wells were washed 5 times with […] of 0.01 M borate buffer (pH 8.5). Methylene blue was extracted from the cells with […] of 0.1N HCi/ethanol (1:1 mixture) for 1 hour at room temperature. The amount of methylene blue staining was measured on a microplate reader (BioRad, Hercules, Calif., USA) using light absorbance at 655 nm wavelength.
In the methylene-blue staining method, 7000 cells were plated into each well of a 96-well plate, and treated as described above. Cells were then counted using the method of Oliver et al. (1989, J. Cell. Sci. 92:513-8). After 48 hours of treatment, all wells were washed with 100 μl of PBS, and the cells fixed with 10% formalin in neutral-buffered saline (Sigma Chemical Co., St. Louis, Mo., USA). The cells were then stained with 1% methylene blue (Sigma) in 0.01M borate buffer, pH 8.5. Wells were washed with 0.01M borate buffer, and the methylene blue extracted from the cells with 0.1N HCl/ethanol, and the absorbance measured in a microplate reader (Bio-Rad, Hercules, Calif., USA) at 655 nm. Polymyxin B (Sigma) at a final concentration of 5 μg/ml was used to inactivate endotoxin (Liu, S. et al., 1997, Clin. Biochem. 30:455-63).
Proliferation of endothelial cells (C-PAE cells) and WM-164 melanoma cells was assayed by methylene blue staining, as described above in Examples 25 and 34. The results are shown in FIGS. 33A and 33B, which are a pair of graphs showing the effect of increasing concentration (x-axis) of Tumstatin, Tum-1, Tum-2, Tum-3 and Tum-4 on the relative number (y-axis) of C-PAE cells (FIG. 33A) and WM-164 cells (FIG. 33B). […] Tum-4, however, did have anti-proliferative activity in this cell line. […] Only Tum-4 inhibited WM-164 melanoma cells.
For the proliferation assay, Canstatin, Can-1 and Can-2 soluble proteins (0.1-20.0 μg/ml) were added to the growth medium of proliferating C-PAE cells, which were stimulated with 10% FBS in DMEM, in addition to 5 ng/ml bFGF and 3 ng/ml VEGF. The results are shown in FIG. 40, which is a graph showing the effect of increasing concentrations of Canstatin (♦), Can-1 (▪) and Can-2 (▴) (x-axis) on the relative cell number (y-axis) of C-PAE cells. Each concentration of each protein was tested in quadruplicate. Bovine serum albumin (BSA) was used as a control treatment. Polymyxin B was used to control for endotoxin interference, and no differences were found between assays run with and without polymyxin B added to the medium. Cells were allowed to proliferate for 48 hours, and were then fixed, stained and the density read with a Bio-Rad plate reader (Bio-Rad, Hercules, Calif., USA). Canstatin and Can-1 both caused dose-dependent decreases in the percent cell number, and both reduced the number of cells by 80% at concentrations of 5 μg/ml and higher.
An endothelial cell proliferation assay was used to compare the activity of Tumstatin and some of the deletion mutants. Recombinant Tumstatin (28 kDa), Tumstatin-44-131 (12 kDa) and T3 peptide were used in a methylene blue proliferation assay in equimolar concentrations.

LQRFTTMPFLFCNVNDVCNF [T3]
inhibition of endothelial cell proliferation by synthetic peptides (20% FCS): significantly (p<0.05) inhibit | EC50: 2500 nM | fold less active than Tumstatin and Tumstatin-44-131 (equimolar concentrations / molar basis): 2.5 fold

GLKGKRGDSGSPATWTTRGF [T1]
inhibition of endothelial cell proliferation by synthetic peptides (20% FCS): did not inhibit endothelial cell proliferation

B1: Tum-4: residues 181 to 244 of Tumstatin (SEQ ID NO:25) (protein)
chain: EFRASPFLECHGRGTCNYYSNSYSFWLASLNPERMFRKPIPSTVKAGELEKIISRCQVCMKKRH
modifications: Tum-4 (amino acids 181-244 of SEQ ID NO10)
inhibition of proliferation of C-PAE cells: did not inhibit | Relative Cell No. (%) C-PAE (20% FCS): 95.7 ± 3.6%

B2: Tum-2: residues 1 to 132 of Tumstatin (SEQ ID NO:23) (protein)
chain: GLKGKRGDSGSPATWTTRGFVFTRHSQTTAIPSCPEGTVPLYSGFSFLFVQGNQRAHGQDLGTLGSCLQRFTTMPFLFCNVNDVCNFASRNDYSYWLSTPALMPMNMAPITGRALEPYISRCTVCEGPAIAI
modifications: Tum-2 (amino acids 1-132 of SEQ ID NO10)
inhibition of proliferation of C-PAE cells: 73.3% | Relative Cell No. (%) C-PAE (20% FCS): 34.3 ± 3.9 %

B3: endostatin: tumor associated angiogenesis inhibitor used as comparator (protein, UniProt P39060 1572-1754, looked up)
Endostatin: HSHRDFQPVLHLVALNSPLSGGMRGIRGADFQCFQQARAVGLAGTFRAFLSSRLQDLYSIVRRADRAAVPIVNLKDELLFPSWEALFSGSEGPLKPGARIFSFDGKDVLRHPTWPQKSVWHGSDPNGRRLTESYCETWRTEAPSATGQASSLLGGRLLGQSAASCHHAYIVLCIENSFMTASK
modifications: Endostatin
inhibition of endothelial cell proliferation, comparison with anti-αvβ3 antibody: dose-dependent inhibition

B4: Tumstatin: NC1 domain of the α3 chain of type IV collagen, residues 1-244 (SEQ ID NO:10) (protein, listed as Homo sapiens)
chain: GLKGKRGDSGSPATWTTRGFVFTRHSQTTAIPSCPEGTVPLYSGFSFLFVQGNQRAHGQDLGTLGSCLQRFTTMPFLFCNVNDVCNFASRNDYSYWLSTPALMPMNMAPITGRALEPYISRCTVCEGPAIAIAVHSQTTDIPPCPHGWISLWKGFSFIMFTSAGSEGTGQALASPGSCLEEFRASPFLECHGRGTCNYYSNSYSFWLASLNPERMFRKPIPSTVKAGELEKIISRCQVCMKKRH
inhibition of proliferation of C-PAE cells: 78.5% | Relative Cell No. (%) C-PAE (20% FCS): 100.0 ± 3.2% | EC50: 1000 nM | inhibition of endothelial cell proliferation, comparison with anti-αvβ3 antibody: dose-dependent inhibition

B5: Can-1: N-terminal 114 amino acids of full-length Canstatin (protein, listed as Homo sapiens)
chain: VSIGYLLVKHSQTDQEPMCPVGMNKLWSGYSLLYFEGQEKAHNQDLGLAGSCLARFSTMPFLYCNPGDVCYYASRNDKSYWLSTTAPLPMMPVAEDEIKPYISRCSVCEAPAIA
reduction of the number of cells: 80%

B6: Tum-1: residues 54 to 244 of Tumstatin, lacking the N-terminal 53 amino acids (SEQ ID NO:22) (protein)
chain: QRAHGQDLGTLGSCLQRFTTMPFLFCNVNDVCNFASRNDYSYWLSTPALMPMNMAPITGRALEPYISRCTVCEGPAIAIAVHSQTTDIPPCPHGWISLWKGFSFIMFTSAGSEGTGQALASPGSCLEEFRASPFLECHGRGTCNYYSNSYSFWLASLNPERMFRKPIPSTVKAGELEKIISRCQVCMKKRH
modifications: Tum-1 (Tumstatin N-53) (amino acids 54-244 of SEQ ID NO10)
inhibition of proliferation of C-PAE cells: 65.6% | Relative Cell No. (%) C-PAE (20% FCS): 20.5 ± 3.4 %

B7: Canstatin: NC1 domain of the α2 chain of Type IV collagen (SEQ ID NO:6) (protein, listed as Homo sapiens)
chain: VSIGYLLVKHSQTDQEPMCPVGMNKLWSGYSLLYFEGQEKAHNQDLGLAGSCLARFSTMPFLYCNPGDVCYYASRNDKSYWLSTTAPLPMMPVAEDEIKPYISRCSVCEAPAIAIAVHSQDVSIPHCPAGWRSLWIGYSFLMHTAAGDEGGGQSLVSPGSCLEDFRATPFIECNGGRGTCHYYANKYSFWLTTIPEQSFQGSPSADTLKAGLIRTHISRCQVCMKNL
reduction of the number of cells: 80% | treatment level at which dye uptake dropped off to the level seen in unstimulated cells (10% FCS): 0.625 to 1.25 µg/mL

B8: Tumstatin-44-131: residues 44 to 131 of full-length Tumstatin (SEQ ID NO:33) (protein)
chain: FSFLFVQGNQRAHGQDLGTLGSCLQRFTTMPFLFCNVNDVCNFASRNDYSYWLSTPALMPMNMAPITGRALEPYISRCTVCEGPAIAI
modifications: Tumstatin-45-132 (amino acids 45-132 of SEQ ID NO10)
ED50, inhibition of proliferation (Pichia-expressed, 20% FCS): 5 µg/mL | EC50: 1000 nM
